Reference: US20080182978A1, “ANTI-NGF ANTIBODIES AND METHODS USING SAME” (RINAT NEUROSCIENCE CORP, priority 2002, published 2008)

System: moderate to severe pain from osteoarthritis of the knee
Assay: Clinical study, osteoarthritis of the knee: index knee pain VAS, PID/SPID
Assay type: in vivo, human
Text: Adult males and females (ages between 35 to 65) who were experiencing moderate-to-severe pain from osteoarthritis of the knee, but were in otherwise overall good health were enrolled in the study. During the screening period, patients were required to discontinue arthritis medications such as NSAIDs, cyclooxygenase type-2 (COX-2) inhibitors, and opiates at least 14 days prior to administration of anti-NGF antibody E3. Patients were allowed to use rescue medications of acetaminophen or ibuprofen with some restrictions based on laboratory findings or past medical history. Some patients took rescue medications during the study, but rescue medications were not consumed for 2 days before and after administration of anti-NGF antibody E3. Thirty-four patients were admitted to the study and assessed as inpatients for on Study Days -1, 1 and 2. Anti-NGF antibody E3 administration occurred on the morning of Day 1. Electronic diaries were used to record index knee pain and rescue medication usage in clinic and at home. Ten patients were treated with placebo. Twenty-four patients were treated with anti-NGF antibody E3: four patients per dose level for 3 μg/kg (cohort 1), 10 μg/kg (cohort 2), and 30 μg/kg (cohort 3); and six patients per dose level for 100 μg/kg (cohort 4) and 300 μg/kg (cohort 5). The placebo used was sterile 0.9% Sodium Chloride Injection, USP (normal saline). Anti-NGF antibody E3 was a frozen liquid formulation consisting of 10 mg/ml antibody in an aqueous solution of 10 mM histidine, 275 mM sucrose, 0.01% polysorbate 20, pH 6.0. One hour prior to IV administration, frozen antibody was thawed and diluted into Sodium Chloride Injection, USP. The volume for each patient was calculated based on the subject's Day -1 weight and assigned dose level, ranging from 3-6 cc for cohort 1, 10-20 cc for cohort 2, 30-60 cc for cohort 3, and 100 cc for cohort 4 and cohort 5. For cohorts 1 and 2, antibody E3 was administered by a slow IV bolus over 3 to 5 minutes, followed with an IV flush of 5 cc Sodium Chloride Injection, USP. For cohorts 3-5, antibody E3 was administered at 100 cc/hour via infusion pump, followed with an IV flush of 5 cc Sodium Chloride Injection, USP and discontinuation of the IV. Within each cohort, the placebo (Sodium Chloride Injection, USP) was administered by slow bolus or continuous infusion in the same fashion as the antibody E3. After two in-patient days, patients were discharged home. […] Periodic safety assessments was performed for 181 days in all patients. Analgesic effects were assessed before dosing and at multiple times after administration of antibody E3. […] Patients were cued 4 times daily and instructed to indicate the level of arthritis pain in the index knee at that moment. […] VAS for index knee pain during walking was completed daily, concurrent with the fourth current index knee pain VAS. Electronic diary for data collection was issued on day -8 and a 7-day screening assessment of electronic diary compliance was performed from day -8 to day -2 to determine success in using the electronic diaries for a given subject. Subjects were instructed to complete 4 diaries per day. The mean VAS recorded during the screening period is used as baseline for assessment of efficacy. Outcome was assessed as change from baseline (pain level during screening period), expressed as pain intensity difference (PID) or summed pain intensity difference (SPID) for different dose levels. Changes from baseline in the activity measurements were analyzed using an analysis of covariance (ANCOVA) model with treatment as the main factor and baseline pain as a covariate. For means and mean changes, comparisons of antibody E3 with placebo was made using Dunnett'[…] was used to assess the dose-response relationship.

B1: E3: humanized, affinity matured anti-NGF antagonist antibody; variable regions SEQ ID NO:1 and 2; human IgG2a (A330P331 to S330S331), kappa (antibody, V domains shown)
VH: QVQLQESGPGLVKPSETLSLTCTVSGFSLIGYDLNWIRQPPGKGLEWIGIIWGDGTTDYNSAVKSRVTISKDTSKNQFSLKLSSVTAADTAVYYCARGGYWYATSYYFDYWGQGTLVTVS
VL: DIQMTQSPSSLSASVGDRVTITCRASQSISNNLNWYQQKPGKAPKLLIYYTSRFHSGVPSRFSGSGSGTDFTFTISSLQPEDIATYYCQQEHTLPYTFGQGTKLEIKRT
modifications: human IgG2a constant (A330S/P331S) and kappa constant missing
- Summed pain intensity differences (SPID) as compared to baseline (All E3 doses, Days 2-8): −713
- Summed pain intensity differences (SPID) as compared to baseline (All E3 doses, Days 2-14): −1269
- Summed pain intensity differences (SPID) as compared to baseline (All E3 doses, Days 2-21): −1752
- Summed pain intensity differences (SPID) as compared to baseline (All E3 doses, Days 2-28): −2254
- Summed pain intensity differences (SPID) as compared to baseline (E3 3 μg/kg single administration, Days 2-8): −572
- Summed pain intensity differences (SPID) as compared to baseline (E3 3 μg/kg single administration, Days 2-14): −956
- Summed pain intensity differences (SPID) as compared to baseline (E3 3 μg/kg single administration, Days 2-21): −1048
- Summed pain intensity differences (SPID) as compared to baseline (E3 3 μg/kg single administration, Days 2-28): −1067
- Summed pain intensity differences (SPID) as compared to baseline (E3 10 μg/kg single administration, Days 2-8): −671
- Summed pain intensity differences (SPID) as compared to baseline (E3 10 μg/kg single administration, Days 2-14): −1174
- Summed pain intensity differences (SPID) as compared to baseline (E3 10 μg/kg single administration, Days 2-21): −1623
- Summed pain intensity differences (SPID) as compared to baseline (E3 10 μg/kg single administration, Days 2-28): −2020
- Summed pain intensity differences (SPID) as compared to baseline (E3 30 μg/kg single administration, Days 2-8): −733
- Summed pain intensity differences (SPID) as compared to baseline (E3 30 μg/kg single administration, Days 2-14): −1371
- Summed pain intensity differences (SPID) as compared to baseline (E3 30 μg/kg single administration, Days 2-21): −2042
- Summed pain intensity differences (SPID) as compared to baseline (E3 30 μg/kg single administration, Days 2-28): −2566
- Summed pain intensity differences (SPID) as compared to baseline (E3 100 μg/kg single administration, Days 2-8): −766
- Summed pain intensity differences (SPID) as compared to baseline (E3 100 μg/kg single administration, Days 2-14): −1403
- Summed pain intensity differences (SPID) as compared to baseline (E3 100 μg/kg single administration, Days 2-21): −1996
- Summed pain intensity differences (SPID) as compared to baseline (E3 100 μg/kg single administration, Days 2-28): −2726
- Summed pain intensity differences (SPID) as compared to baseline (E3 300 μg/kg single administration, Days 2-8): −769
- Summed pain intensity differences (SPID) as compared to baseline (E3 300 μg/kg single administration, Days 2-14): −1340
- Summed pain intensity differences (SPID) as compared to baseline (E3 300 μg/kg single administration, Days 2-21): −1869
- Summed pain intensity differences (SPID) as compared to baseline (E3 300 μg/kg single administration, Days 2-28): −2521
- summed pain intensity differences (SPID) vs baseline, ANCOVA (single administration, p<0.05): pain reduction was statistically significant
- mean daily pain intensity (VAS) vs baseline (single i.v. dose 3, 10, 30, 100 or 300 μg/kg, every dose tested): decrease of mean daily pain intensity
- duration of pain intensity reduction / pain relief (single i.v. dose of 100 μg/kg): at least 80 days
